Results as given in US20210187120A1 (WISCONSIN ALUMNI RESEARCH FOUNDATION, published 2021).
No end group written: not given here.

Legend:
[1] = biological target: T1, PD-L1 on 786-O cells (PD-L1 overexpressing human renal cell carcinoma line) and MCF-7 cells (low PD-L1) (human, UniProt Q9NZQ7 19-290); experiment: cell-based or functional assay
[2] = biological target: T2, PD-L1 proteins (R&D systems) (UniProt Q9NZQ7 19-239, limits assumed); experiment: SPR, PD-L1 immobilized on CM5 chip
T2 construct: Commercial recombinant PD-L1; It was immobilized on a CM5 chip for SPR and used in solution for the FP assay; also called immobilized PD-L1 proteins
T2 sequence (Q9NZQ7 19-239 limits assumed): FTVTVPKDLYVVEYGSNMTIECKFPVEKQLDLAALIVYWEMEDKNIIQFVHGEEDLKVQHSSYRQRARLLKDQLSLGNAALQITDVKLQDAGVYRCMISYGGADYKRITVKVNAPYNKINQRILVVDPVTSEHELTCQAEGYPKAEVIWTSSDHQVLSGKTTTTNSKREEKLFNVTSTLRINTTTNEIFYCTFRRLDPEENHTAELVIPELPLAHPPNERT
Protocol: (§1) Surface plasma resonance (SPR). SPR analysis was done using a BIAcore™ X (Pharmacia Biosensor AB, Uppsala, Sweden). In short, PD-L1 proteins (R&D systems) were immobilized onto carboxylated dextran-coated gold film surface of sensor chip (CM5 sensor chip, GE Healthcare) through EDC/NHS chemistry. 30 μL of sample solution was injected at a flow rate of […]. Sample solution was allowed to flow into both channels (channel 1 for reference, channel 2 with PD-L1), and the final SPR sensorgrams were obtained by subtracting the […].

[3] = biological target: T2, PD-L1 proteins (R&D systems); experiment: SPR (BIAcore X), PD-L1 immobilized on CM5 chip, four concentrations (45-270 nM by the legend)
Protocol: as §1

[4] = biological target: T2, PD-L1 proteins (R&D systems); experiment: SPR (BIAcore X), PD-L1 immobilized on CM5 chip, four concentrations (17-42 µM by the legend)
Protocol: as §1

[5] = biological target: T2, PD-L1 proteins (R&D systems); experiment: fluorescence polarization, fβH2_mt titrated with PD-L1 in PBS; the concentration varied is that of PD-L1
Protocol: Fluorescence polarization (FP) assay. FP assay in PBS was used the PD-L1 binding and competition assays (λex=480 nm; λem=535 nm). Fluorescence anisotropy measurements were performed at room temperature, in a 384-well plate, and using an Infinite® M1000 Pro microplate reader (Tecan). A fβH2_mt/PD-L1 complex was used for the FP competition assay after 30 min incubation time and titrated with the competitors.

[6] = biological target: T1, PD-L1 on 786-O cells (PD-L1 …); experiment: fluorescence microscopy (rhodamine), cells treated for 1 h

T1 sequence (Q9NZQ7 19-290): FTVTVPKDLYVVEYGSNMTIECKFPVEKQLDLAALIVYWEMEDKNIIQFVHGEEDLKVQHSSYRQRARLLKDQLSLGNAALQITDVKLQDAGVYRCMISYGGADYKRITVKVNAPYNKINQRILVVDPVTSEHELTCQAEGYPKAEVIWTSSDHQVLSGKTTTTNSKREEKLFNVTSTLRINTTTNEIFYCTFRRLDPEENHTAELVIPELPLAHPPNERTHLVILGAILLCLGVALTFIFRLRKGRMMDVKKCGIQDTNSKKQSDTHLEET

Binder: HVVWHRESPSGQTDTKAA-NH2 (other, not fully specified, also called G7-βH2_mt conjugates; DPC) [G7-βH2_mt (βH2_mt peptides conjugated to 90% acetylated G7 PAMAM dendrimer)]
- IL-2 secretion from Jurkat T cells co-cultured with 786-O cells, compared with the non-treated cancer cells [1]: 1.52 fold
- fold decrease of the dissociation rate constant (kd) compared to the free peptide [2]: ~180 times
- Kd [3]: 2.75 nM
- koff [3]: 0.000693 s⁻¹
- kon [3]: 252000 M⁻¹ s⁻¹

B1: free βH2_mt peptide (peptide)
peptide: HVVWHRESPSGQTDTKAA-NH2
notes: also called H2_mt peptides; free peptides
- Kd [4]: 119000 nM
- koff [4]: 0.127 s⁻¹

B2: fluorescein-conjugated βH2_mt (fβH2_mt) peptide (peptide)
peptide: HVVWHRESPSGQTDTKAA-NH2
modifications: also: fluorescein-conjugated, position not given here
notes: Tracer of the fluorescence polarization assay
- EC50 (read off the curve) [5]: ~300 nM

B3: pL1TZ (Trp-Zip βH2 mutant peptide) (peptide)
peptide: HKVWHWESPSGQWDTWAA-NH2
notes: Free tryptophan-zipper peptide; also called pLiTZ
- binding result [6]: binds
